The values below come from paper PMC7721705, “The G protein coupled receptor CXCR4 designed by the QTY code becomes more hydrophilic and retains cell signaling activity” (Scientific Reports, 2020).

The data set deals with the molecule itself. Nature of the data set: dimer bands on SDS-PAGE (Western blot with rho1D4 antibody, silver stain); immunoaffinity-purified receptors in 0.01% or 0.2% detergent; Novex 10% Bis-Tris gels, samples kept at room temperature 10 min, not boiled. (In general: In western blotting, separated proteins are transferred to a membrane and probed.)

B1: CXCR4^QTY29 with C-terminal GSSG linker and rho1D4 tag (receptor, UniProt P61073 1-352, looked up)
chain: MEGISIYTSDNYTEEMGSGDYDSMKEPCFREENANYNKTFLPTIYSIIYQTGTVGNGLVILVMGYQKKLRSMTDKYRLHLSTADLQFVTTLPYWATDATANWYFGNFLCKAVHVIYTVNLYSSVLILAFISLDRYLAIVHATNSQRPRKLLAEKVVYVGVWTPAQLLTTPDYTFANVSEADDRYICDRFYPNDLWVVVFQFQHIMVGLILPGIVILSCYCIIISKLSHSKGHQKRKALKTTTTLIQAFFACWQPYYTGISIDSYILLEIIKQGCEFENTVHKWISTTEAQAFYHCCTNPTQYAYLGAKFKTSAQHALTSVSRGSSLKILSKGKRGGHSSVSTESESSSFHSS
notes: CXCR4, UniProt P61073, with 29 QTY replacements of lipid-facing transmembrane residues; also called QTY variant; source: E. coli cell-free reaction mix (pIVex2.3) with Brij-35; captured from crude supernatant (SPR); not shown: rho1D4 tag (after a GSSG linker), C-terminal, kept
On to B1, for which the binding result was “binds”.
